Source: US20200199244A1 (published 2020)
Substitutions are numbered along the chain they refer to. Several values for one entry are separate records, joined by “and”; a condition that tells them apart may be missing. Equal entries are not always repeated.

T1: wild type cynomolgus monkey CD40 Fc fusion (cynomolgus monkey (Macaca …))
T1 construct: also called wt-cCD40; wt-cyno-CD40; not shown: human IgG1 Fc
T1 chain: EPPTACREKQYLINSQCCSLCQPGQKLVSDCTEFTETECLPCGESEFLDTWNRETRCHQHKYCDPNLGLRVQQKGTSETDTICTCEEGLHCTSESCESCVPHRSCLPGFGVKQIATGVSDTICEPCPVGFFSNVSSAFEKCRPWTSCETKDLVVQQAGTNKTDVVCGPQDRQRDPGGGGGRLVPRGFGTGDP

T2: human CD40 (H76R, W109L, L121P) Fc fusion (human)
T2 construct: Same construct as wt-hCD40 with H76R, W109L and L121P; also called hCD40-M5; hCD40-M5 (H76R, W109L, L121P); not shown: human IgG1 Fc
T2 chain: T1 chain with S95A, L106S, R142H, Q172L

T3: wild type cynomolgus monkey CD40 Fc fusion (cynomolgus monkey; human)
T3 construct: also called wt-cyno-CD40; wt-cCD40; not shown: human IgG1 Fc
T3 chain: T1 chain

T4: human CD40 (H76R, W109L, L121P) Fc fusion (human)
T4 construct: As m1 with H76R, W109L and L121P; also called hCD40-M5; not shown: human IgG1 Fc
T4 chain: T1 chain with S95A, L106S, R142H, Q172L

B1: BMS3h-56-262 (other)
VH: EVQLLESGGGLVQPGGSLRLSCAASGFTFRDYEMWWVRQAPGKGLERVSAINPQGTRTYYADSVKGRFTISRDNSKNTLYLQMNSLRAEDTAVYYCAKLPQLFHDRGQGTLVTVSS
notes: domain antibody (dAb): single human VH domain
B2: BMS3h-56-261 (other)
VH: B1 VH with Q101F, L102F, H104Q, D105E, R106W
notes: as for B1
B3: BMS3h-56-270 (other)
VH: B1 VH with Q101T, H104Q, R106W
notes: as for B1
B4: BMS3h-56-265 (other)
VH: B1 VH with H104Q, R106W
notes: as for B1
B5: BMS3h-56-258 (other)
VH: B1 VH with Q101F, L102Y, D105E, R106W
notes: as for B1
B6: BMS3h-56-266 (other)
VH: B1 VH with Q101F, L102F, D105E, R106W
notes: as for B1
B7: BMS3h-56-269 (other)
VH: B1 VH with Q101F, L102R, H104S
notes: as for B1
B8: BMS3h-56-1 (other)
VH: B1 VH with Q101F, L102T, H104E, R106W
notes: Anti-human CD40 domain antibody (dAb), single VH domain
B9: BMS3h-56-2 (other)
VH: B1 VH with Q101F, L102T, H104D, R106W
notes: as for B8
B10: BMS3h-38-211 (other)
VH: EVQLLASGGGLVQPGGSLRLSCAASGFTFEEEEMIWVRQAPGKGLEWVSAISRQGGSTYYADSVKGRFTISRDNSKNTLYLQMNSLRAEDTAVYYCGKEPFRYDYWGQGTLVTVSS
notes: domain antibody (dAb), single VH domain
B11: BMS3h-38-215 (other)
VH: B10 VH with R53G, Q54L, G56W
notes: as for B10
B12: BMS3h-38-217 (other)
VH: B10 VH with Q54R, G56Y
notes: as for B10
B13: BMS3h-37-2 (other)
VH: EVQLLESGGGLVQPGGSLRLSCAASGFTFEWYEMQWVRRAPGKGLEWVSAISGDGYRTYYADSVKGRFTISRDNSKNTLYLQMNSLRAEDTAVYYCAKELGYFDYWGRGTLVTVSS
notes: as for B10
B14: BMS3h-37-11 (other)
VH: B13 VH with R39K, W106R
notes: as for B10
B15: BMS3h-38-2 (other)
VH: B10 VH with R53G, Q54S
notes: Human domain antibody (dAb), single VH domain
B16: BMS3h-38-217 (other)
VH: B10 VH with Q54R, G56Y
notes: as for B15
B17: BMS3h-38-215 (other)
VH: B10 VH with R53G, Q54L, G56W
notes: as for B15
B18: BMS3h-38-211 (other)
VH: B10 VH
notes: as for B15
B19: BMS3h-37-2 (other)
VH: B13 VH
notes: as for B15
B20: BMS3h-37-11 (other)
VH: B13 VH with R39K, W106R
notes: as for B15

molecular target: T5, human CD40 expressed on stably transfected CHO-DG44 cells (human, UniProt P25942 21-277); assay: CHO-CD40 cell RBA, competition with IZ-CD40L (FMAT)
T5 construct: Cell-surface human CD40 in the CHO cell RBA; also called CHO-CD40; human CD40 CHO cells
Method: The mixture was incubated in the absence of light for 6 hours.

| EC50 [nM] | Binder |
| --- | --- |
| 42 | B1 |
| 17 | B2 |
| 91 | B3 |
| 88 | B4 |
| 15 | B5 |
| 27 | B6 |
| 24 | B7 |

molecular target: T6, human CD40 (BMS, CY24FEB06-01) (human, UniProt P25942 21-193); assay: ELISA RBA, competition with IZ-CD40L for soluble human CD40;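 further: Neutravidin-coated 384-well plates, dAb–human CD40 complex incubated 2 h at room temperature, read-out as absorbance at 450 nm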
T6 construct: Soluble human CD40 reagent of the ELISA RBA
Method: Clear walled High Bind, 384-well plates (Corning, UK) were coated with 25 μl of 1 μg/ml Neutravidin in 0.2 M carbonate-bicarbonate buffer, pH 9.4 overnight at 4° C. The following day, assay plates were washed with 0.1% (v/v) Tween PBS buffer, blocked with 1% (w/v) BSA in PBS for 1 hour at room temperature and washed again. […] Following washing of the assay plate, the dAb:human CD40 complex was incubated in the assay plate at room temperature for 2 hours with gentle agitation. […] Absorbance signal was measured using a SpectraMax® M5e plate reader (Molecular Devices) at 450 nm following neutralization with 1M HCl solution.

| EC50 [nM] | Binder |
| --- | --- |
| 4 | B1 |
| 5.7 | B2 |
| 11.3 | B3 |
| 18.8 | B4 |
| 5.2 | B5 |
| 3.8 | B6 |
| 3.3 | B7 |

molecular target: T7, human CD40 (W109L, L121P) Fc fusion (human, UniProt P25942 21-193); assay: SPR, ProteOn XPR36; CD40-Fc captured, dAb analyte
T7 construct: Same construct as wt-hCD40 with W109L and L121P; also called hCD40-M4; hCD40 M4 (W109L, L121P); not shown: human IgG1 Fc

| Binder | binding result |
| --- | --- |
| B8 | no binding (tested: dAb tested up to 405 nM) |
| B9 | no binding (tested: dAb tested up to 405 nM) |

Molecular target: T1, wild type cynomolgus monkey CD40 Fc …
Assay: SPR, ProteOn XPR36; CD40-Fc captured, dAb analyte
Method: (§1) Assays were performed on a BioRad ProteOn XPR36 SPR instrument. The SPR surfaces were prepared by immobilizing 8 μg/ml anti-human IgG(Fc) antibody (Biacore/GE Healthcare) in 10 mM sodium acetate pH 4.5 on a BioRad GLC sensor chip using standard ethyl(dimethylaminopropyl) carbodiimide (EDC)/N-hydroxysuccinimide (NHS) chemistry, with ethanolamine blocking. The running buffer for immobilization and kinetic binding analysis was 10 mM sodium phosphate, 130 mM sodium chloride, 0.05% tween 20, pH 7.1. CD40-Fc fusion proteins at concentrations of 20 μg/ml were captured in the vertical orientation on these surfaces via the Fc tail, and reference surfaces lacking CD40-Fc proteins were used for reference subtraction. […] The surfaces were regenerated in both horizontal and vertical orientations with 30 s pulses of 3 M MgCl₂ followed by running buffer at 60 μl/min. Sensogram data was double-referenced and then fitted to a 1:1 Langmuir model using BioRad ProteOn Manager V.2.1.0.38 software, to determine the association rate constant (ka), the dissociation rate constant (kd), and the equilibrium dissociation constant (KD).

| Binder | binding result |
| --- | --- |
| B8 | no binding (tested: dAb tested up to 405 nM) |

Molecular target: T2, human CD40 (H76R, W109L, L121P) Fc …
Assay: SPR, ProteOn XPR36; CD40-Fc captured, dAb analyte
Method: as §1

| Binder | binding result |
| --- | --- |
| B8 | no binding (tested: dAb tested up to 405 nM) |
| B9 | no binding (tested: dAb tested up to 405 nM) |

molecular target: T8, wild type human CD40 Fc fusion (human, UniProt P25942 21-193); assay: SPR ProteOn XPR36, CD40-Fc captured, dAb analyte
T8 construct: also called wt-hCD40; not shown: human IgG1 Fc

| Kd | Binder |
| --- | --- |
| 3.3 nM and 6.1 nM | B10 |
| 2.1 nM and 6 nM | B11 |
| 2.3 nM and 2.4 nM | B12 |
| 2 nM | B13 |
| 1.9 nM and 2.3 nM | B14 |

molecular target: T9, human CD40 (H76R) Fc fusion (human, UniProt P25942 21-193); assay: SPR ProteOn XPR36, CD40-Fc captured, dAb analyte
T9 construct: As m1 with H76R; also called hCD40-M1; not shown: human IgG1 Fc

| Kd [nM] | Binder |
| --- | --- |
| 4 | B10 |
| 3 | B11 |
| 3.4 | B12 |
| 2.6 | B13 |
| 2.4 | B14 |

molecular target: T10, human CD40 (W109L, L121P) Fc fusion (human, UniProt P25942 21-193); assay: SPR ProteOn XPR36;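 further: surface plasmon resonance with CD40-Fc fusions captured through their Fc on an anti-human IgG chip, sensorgrams reference-subtracted against surfaces lacking CD40-Fc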
T10 construct: As m1 with W109L and L121P; also called hCD40-M4; not shown: human IgG1 Fc

| binding result | Binder |
| --- | --- |
| no binding (tested: 405 nM) | B10 |
| no binding (tested: 405 nM) | B11 |
| no binding (tested: 405 nM) | B12 |
| no binding (tested: 405 nM) | B13 |
| no binding (tested: 405 nM) | B14 |

molecular target: T11, human CD40 (W109R) Fc fusion (Chimpanzee CD40) (human, UniProt P25942 21-193); assay: SPR ProteOn XPR36;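 further: surface plasmon resonance with CD40-Fc fusions captured through their Fc on an anti-human IgG chip, sensorgrams reference-subtracted against surfaces lacking CD40-Fc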
T11 construct: As m1 with W109R (residue of chimpanzee CD40); also called hCD40-M3; not shown: human IgG1 Fc

| binding result | Binder |
| --- | --- |
| no binding (tested: 405 nM) | B10 |
| no binding (tested: 405 nM) | B11 |
| no binding (tested: 405 nM) | B12 |
| no binding (tested: 405 nM) | B13 |
| no binding (tested: 405 nM) | B14 |

Molecular target: T3, wild type cynomolgus monkey CD40 Fc …
Assay: SPR ProteOn XPR36;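 further: surface plasmon resonance with CD40-Fc fusions captured through their Fc on an anti-human IgG chip, sensorgrams reference-subtracted against surfaces lacking CD40-Fc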
Method: as §1

| binding result | Binder |
| --- | --- |
| no binding (tested: 405 nM) | B10 |
| no binding (tested: 405 nM) | B11 |
| no binding (tested: 405 nM) | B12 |
| no binding (tested: 405 nM) | B13 |
| no binding (tested: 405 nM) | B14 |

Molecular target: T4, human CD40 (H76R, W109L, L121P) Fc …
Assay: SPR ProteOn XPR36;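 further: surface plasmon resonance with CD40-Fc fusions captured through their Fc on an anti-human IgG chip, sensorgrams reference-subtracted against surfaces lacking CD40-Fc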
Method: as §1

| binding result | Binder |
| --- | --- |
| no binding (tested: 405 nM) | B10 |
| no binding (tested: 405 nM) | B11 |
| no binding (tested: 405 nM) | B12 |
| no binding (tested: 405 nM) | B13 |
| no binding (tested: 405 nM) | B14 |

molecular target: T12, wild type human CD40 Fc fusion (human, UniProt P25942 21-193); assay: SPR (ProteOn XPR36), dAb over CD40-Fc captured by anti-human IgG(Fc)
T12 construct: also called wt-hCD40
Method: as §1

| Kd [nM] | Binder |
| --- | --- |
| < 10 | B15 |
| < 10 | B16 |
| < 10 | B17 |
| < 10 | B18 |
| < 10 | B19 |
| < 10 | B20 |

molecular target: T13, human CD40 (H76R) Fc fusion (human, UniProt P25942 21-193); assay: as above
T13 construct: Built as wt-hCD40 with the printed substitution; also called hCD40-M1; hCD40 M1 (H76R)
Method: as §1

| Kd [nM] | Binder |
| --- | --- |
| < 10 | B15 |
| < 10 | B16 |
| < 10 | B17 |
| < 10 | B18 |
| < 10 | B19 |
| < 10 | B20 |

molecular target: human CD40 on RAMOS human B cells (human, UniProt P25942 21-277); assay: cell-based or functional assay

| EC50 ICAM1 cell assay [nM] | Binder |
| --- | --- |
| 135 | B1 |
| 42.4 | B2 |
| 93.8 | B3 |
| 289 | B4 |
| 23 | B5 |
| 31.9 | B6 |
| 34.2 | B7 |
